{"source": "patent US9265777B2", "about": "“Antiparasitic agent for fish and method of controlling proliferation of fish parasites” (NIPPON SUISAN KAISHA, LTD., priority 2009, dated 2016)", "origin": "cited, not measured here", "molecules": {"B1": {"name": "lactoferrin: marketed as an additive for fisheries (protein, UniProt P24627 20-708, looked up)", "Lactotransferrin": "APRKNVRWCTISQPEWFKCRRWQWRMKKLGAPSITCVRRAFALECIRAIAEKKADAVTLDGGMVFEAGRDPYKLRPVAAEIYGTKESPQTHYYAVAVVKKGSNFQLDQLQGRKSCHTGLGRSAGWIIPMGILRPYLSWTESLEPLQGAVAKFFSASCVPCIDRQAYPNLCQLCKGEGENQCACSSREPYFGYSGAFKCLQDGAGDVAFVKETTVFENLPEKADRDQYELLCLNNSRAPVDAFKECHLAQVPSHAVVARSVDGKEDLIWKLLSKAQEKFGKNKSRSFQLFGSPPGQRDLLFKDSALGFLRIPSKVDSALYLGSRYLTTLKNLRETAEEVKARYTRVVWCAVGPEEQKKCQQWSQQSGQNVTCATASTTDDCIVLVLKGEADALNLDGGYIYTAGKCGLVPVLAENRKSSKHSSLDCVLRPTEGYLAVAVVKKANEGLTWNSLKDKKSCHTAVDRTAGWNIPMGLIVNQTGSCAFDEFFSQSCAPGADPKSRLCALCAGDDQGLDKCVPNSKEKYYGYTGAFRCLAEDVGDVAFVKNDTVWENTNGESTADWAKNLNREDFRLLCLDGTRKPVTEAQSCHLAVAPNHAVVSRSDRAAHVKQVLLHQQALFGKNGKNCPDKFCLFKSETKNLLFNDNTECLAKLGGRPTYEEYLGTEYVTAIANLKKCSTSPLLEACAFLTR"}}, "test_system": "White spot disease", "settings": "40 mg per 1 kg of fish body weight orally per day, 28-day experimental period"}
{"molecule": "B1", "values": [{"measurement": "infection during experimental period", "value": "no infection was observed"}]}
